Data taken from publication PMC10682421.

How the values were obtained:
[1] = biological target: amyloid beta peptide Aβ 1–42 (fibrils)
[2] = biological target: amyloid beta peptide Aβ 3–28 (fibrils)

Row | Molecule | decrease of SANS scattering intensity at q < 0.01 between the beginning (300 s) and the end of the kinetic experiment (fibril disaggregation; 37 °C, deuterated HCC 1 mg/mL) [1] | decrease of SANS scattering intensity at q < 0.01 between the beginning (300 s) and the end of the kinetic experiment (fibril disaggregation; 37 °C, deuterated HCC 1 mg/mL, 1–10 h) [2]
1 | human cystatin C (wild type) (from UniProt P01034 27-146) (natural protein) | 4% | 
2 | human cystatin C (wild type) (natural protein, 2H-labelled (deuterated) in D-HCC; protonated in H-HCC) SSPGKPPRLVGGPMDASVEEEGVRRALDFAVGEYNKASNDMYHSRALQVVRARKQIVAGVNYFLDVELGRTTCTKTQPNLDNCPFHDQPHLKRKAFCSFQIYAVPWQGTMTLSKSTCQDA |  | > 70%
